Values joined by “and” are separate entries in the source; they are usually repeats but may differ in a detail not shown here. Equal values may be shown once. Read-outs that look alike come from different tables or passages of the source. Blank lines part the entries; values can stand above or below the binder they belong to.
Columns and labels:
[1] = target: T1, human CD39 (Accession No. NM_001776.6) expressed on cells (human, UniProt P49961 1-510); experiment: flow cytometry on a mix of Jurkat, Jurkat/TIM-3, Jurkat/CD39 and Jurkat/TIM-3+CD39 cells in one well, antibody at 0.1 nM, BV421-anti-hIgG, MFI of BV421 per cell group
T1 construct: whole, on cells; On Jurkat, 293T or SK-MEL28 cells; also called Jurkat/CD39; 293T/CD39
T1 sequence (looked up): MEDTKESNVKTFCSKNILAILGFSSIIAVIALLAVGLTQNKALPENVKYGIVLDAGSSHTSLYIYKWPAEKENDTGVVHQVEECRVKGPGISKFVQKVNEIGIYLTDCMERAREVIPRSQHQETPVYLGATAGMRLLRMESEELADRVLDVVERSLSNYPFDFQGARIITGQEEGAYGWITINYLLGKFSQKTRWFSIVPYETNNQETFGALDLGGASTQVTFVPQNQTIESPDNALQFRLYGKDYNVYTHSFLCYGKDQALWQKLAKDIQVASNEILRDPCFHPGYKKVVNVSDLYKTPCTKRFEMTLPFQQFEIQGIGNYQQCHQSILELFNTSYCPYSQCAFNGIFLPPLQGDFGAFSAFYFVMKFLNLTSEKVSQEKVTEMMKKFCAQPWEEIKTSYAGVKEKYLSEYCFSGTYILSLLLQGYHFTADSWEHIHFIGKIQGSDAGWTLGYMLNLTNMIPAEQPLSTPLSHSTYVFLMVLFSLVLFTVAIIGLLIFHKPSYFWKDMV

[2] = target: T2, biotinylated human TIM-3-Fc antigen (in-house product, SEQ ID No: 118) (human, biotinylated); experiment: competition ELISA: human Galectin-9 coated, biotinylated human TIM-3-Fc pre-mixed with the antibody dilution series, Streptavidin-HRP, A450; blocked ligand: human Galectin-9
[3] = target: T2, biotinylated human TIM-3-Fc antigen …; experiment: flow cytometry, inhibition of biotinylated TIM-3-Fc binding to phosphatidylserine on apoptotic Jurkat cells
[4] = target: T2, biotinylated human TIM-3-Fc antigen …; experiment: competition ELISA: human Galectin-9 coated, biotinylated human TIM-3-Fc pre-mixed with the antibody dilution series, Streptavidin-HRP, A450; blocked ligand: human Galectin-9; remark: listed apart in the source
[5] = target: T3, human TIM-3 (Accession No. JX049979.1) stably expressed on cells (human, UniProt Q8TDQ0 22-301); experiment: flow cytometry, 293T/TIM-3 + CD39 cells, KD from MFI
T3 construct: whole, on cells; On Jurkat or 293T cells; also called Jurkat/TIM-3; 293T/TIM-3

[6] = target: T3, human TIM-3 (Accession No. JX049979.1) …; experiment: flow cytometry, Jurkat/TIM-3 + CD39 cells, KD from MFI
[7] = target: T2, biotinylated human TIM-3-Fc antigen …; experiment: flow cytometry, inhibition of biotinylated TIM-3-Fc binding to phosphatidylserine on apoptotic Jurkat cells; remark: listed apart in the source
[8] = target: T3, human TIM-3 (Accession No. JX049979.1) …; experiment: flow cytometry, Jurkat/TIM-3 cells, KD from MFI
[9] = target: T3, human TIM-3 (Accession No. JX049979.1) …; experiment: flow cytometry, 293T/TIM-3 cells, KD from MFI
[10] = target: T2, biotinylated human TIM-3-Fc antigen …; experiment: competition ELISA: human Galectin-9 coated, biotinylated human TIM-3-Fc pre-mixed with the antibody dilution series, Streptavidin-HRP, A450; blocked ligand: human Galectin-9; remark: listed apart in the source
[11] = target: T3, human TIM-3 (Accession No. JX049979.1) …; experiment: flow cytometry on a mix of Jurkat, Jurkat/TIM-3, Jurkat/CD39 and Jurkat/TIM-3+CD39 cells in one well, antibody at 1 nM, BV421-anti-hIgG, MFI of BV421 per cell group
[12] = target: T4, recombinant human CD39 (in-house product, 38 to 478 aa of Accession No. NM_001776.6) (human, UniProt P49961 38-478); experiment: SPR Biacore8K, antibody captured on anti-human IgG, antigen as analyte
T4 construct: also called rhCD39; human CD39-ECD; not shown: Myc and His tags at the C-terminus are named only for the PE-lab
T4 sequence (looked up): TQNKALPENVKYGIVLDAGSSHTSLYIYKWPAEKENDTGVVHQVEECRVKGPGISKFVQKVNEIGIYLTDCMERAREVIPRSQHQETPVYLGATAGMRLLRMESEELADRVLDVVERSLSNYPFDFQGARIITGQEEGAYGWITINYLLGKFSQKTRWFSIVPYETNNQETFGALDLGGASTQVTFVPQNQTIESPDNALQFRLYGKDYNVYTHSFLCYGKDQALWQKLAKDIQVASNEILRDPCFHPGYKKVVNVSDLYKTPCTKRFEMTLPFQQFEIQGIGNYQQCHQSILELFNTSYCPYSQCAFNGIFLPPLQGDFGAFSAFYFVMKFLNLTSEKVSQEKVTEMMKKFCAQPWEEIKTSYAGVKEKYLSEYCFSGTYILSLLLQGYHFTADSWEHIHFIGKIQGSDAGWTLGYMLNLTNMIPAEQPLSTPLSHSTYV

[13] = target: T1, human CD39 (Accession No. NM_001776.6) …; experiment: flow cytometry, 293T/TIM-3 + CD39 cells, KD from MFI
[14] = target: T1, human CD39 (Accession No. NM_001776.6) …; experiment: flow cytometry, 293T/CD39 cells, KD from MFI
[15] = target: T1, human CD39 (Accession No. NM_001776.6) …; experiment: flow cytometry on a mix of Jurkat, Jurkat/TIM-3, Jurkat/CD39 and Jurkat/TIM-3+CD39 cells in one well, antibody at 1 nM, BV421-anti-hIgG, MFI of BV421 per cell group
[16] = target: T2, biotinylated human TIM-3-Fc antigen …; experiment: flow cytometry, inhibition of biotinylated TIM-3-Fc binding to phosphatidylserine on apoptotic Jurkat cells; remark: listed apart in the source

- binding result [1]: no binding (tested: 0.1 nM)
- IC50 (read off the curve) [2]: ~0.5 nM and ~0.3 nM
- IC50 [3]: 8.56 nM and 8.62 nM
- IC50 (read off the curve) [4]: ~1 nM
- Kd [5]: 3.86 nM
- Kd [6]: 0.339 nM
- IC50 [7]: 16.7 nM and 6.66 nM and 8.42 nM
- Kd [8]: 0.274 nM
- Kd [9]: 2.72 nM
- IC50 (read off the curve) [10]: ~0.5 nM and ~1 nM
B1: Hu003_13_F20_sc (antibody)
scFv: QVQLQESGGGLVKPGGSLKLSCAASGFTFSSYYMSWVRQTPDKRLEWVATISNSGGSTYYPDSVKDRFTISRDNAKNTLYLQMSSLKSEDTAMYYCARDPYYTNYVPMDYWGQGTMVTVSSGGGGSGGGGSGGGGSGGGGSDIVMTQSPSFLSASVGDRVTITCKASQYVDTYVAWYQQRPGKAPKPLIYSASTRHTGVPSRFSGSGSGTEFTLTISSLQPEDFATYFCAQYSSSPLTFGGGTKLELK
notes: scFv-Fc homodimer, anti-TIM-3; also called scFv-Fc homodimeric antibody of anti-TIM-3_scFv antibody (humanized) Hu003_13_F20; not shown: GGGG linker and Fc-LALA (IgG1 Fc with L234A and L235A)

- binding result [11]: no binding (tested: 1 nM)
- Kd [12]: 0.629 nM
- koff [12]: 0.000193 s⁻¹
- kon [12]: 307000 M⁻¹ s⁻¹
- Kd [13]: 16.8 nM
- Kd [14]: 7.04 nM
B2: 6-3hIG_LA (antibody, V domains shown)
VH: QVQLVQSGAELVKPGASVKLSCKASGFSIKDTYVHWVKQAPGKGLEWIGKIDPANVNTKFDPKFQGRVTITADTSTNTAYLQLSSLRSEDTAVYYCALYGYDDDAYYFDYWGQGTLVTVSS
VL: EIVLTQSPASLSVSPGERATISCRASESVDNYGISFMNWFQQKPGQAPKLLIYAASNQGSGVPARFSGSGSGTDFTLTISSLEPEDFAVYYCQQSKEVPYTFGQGTKLEIK
notes: IgG1LALA homodimeric antibody; also called IgG1LALA homodimeric antibody of anti-CD39 antibody (humanized) 6-3hIG

- binding result [15]: no binding (tested: 1 nM)
- IC50 [16]: 8.93 nM and 7.11 nM and 8.51 nM and 12.3 nM
B3: Hu003_13_F20_LA (antibody, V domains shown)
VH: QVQLQESGGGLVKPGGSLKLSCAASGFTFSSYYMSWVRQTPDKRLEWVATISNSGGSTYYPDSVKDRFTISRDNAKNTLYLQMSSLKSEDTAMYYCARDPYYTNYVPMDYWGQGTMVTVSS
VL: DIVMTQSPSFLSASVGDRVTITCKASQYVDTYVAWYQQRPGKAPKPLIYSASTRHTGVPSRFSGSGSGTEFTLTISSLQPEDFATYFCAQYSSSPLTFGGGTKLELK
notes: IgG1LALA homodimeric antibody (IgG1 with L234A and L235A); also called Hu003_LA; Hu003-LA

Reference: US20260085127A1 (BRIGHTPATH BIOTHERAPEUTICS, published 2026)
